The record followed here is US20030166870A1.

Like-named read-outs stand apart in the source and are kept apart here.

What is called IC50 is the concentration that gives 50% inhibition.

Experiment [1] concerns the target FLAG-tagged human CCR5 expressed on transfected L1.2 murine pre-B lymphoma cells (human) (UniProt P51681).
Experiment [2] has the same target. The experiment in a line: cell-based or functional assay.
Experiment [3] concerns the target human CCR5 (no tag stated) (human) (UniProt P51681). The experiment is described as follows: cell-based or functional assay.
Experiment [4] has the same target. The experiment in a line: 10 µg/ml mAb; 125I-MIP-1α binding to activated IL-2 maintained T cells (CD3 blasts); competitor MIP-1α.
Experiment [5] has the same target. The experiment in a line: 10 µg/ml mAb; 125I-RANTES binding to activated IL-2 maintained T cells (CD3 blasts); competitor RANTES.
In experiment [6] the target is FLAG-tagged human CCR5 expressed on transfected L1.2 murine pre-B lymphoma cells (human) (UniProt P51681). The experiment in a line: inhibition of 0.1 nM 125I-MIP-1α binding to CCR5 L1.2 transfectants by decreasing amounts of mAb; competitor MIP-1α.
The target is the same in experiment [7]. The experiment in a line: inhibition of 0.1 nM 125I-MIP-1β binding to CCR5 L1.2 transfectants by decreasing amounts of mAb; competitor MIP-1β.
Experiment [8] shares this target. The experiment is described as follows: inhibition of 0.1 nM 125I-RANTES binding to CCR5 L1.2 transfectants by decreasing amounts of mAb; competitor RANTES.

For murine monoclonal antibody 2D7, the IC50 in experiment [1] is 0.01 µg/mL; in experiment [6] it was 0.023 µg/mL; in experiment [7], 0.041 µg/mL; in experiment [8] it was 0.058 µg/mL. In experiment [1], this substance yielded a concentration giving complete inhibition of 125I-gp120 binding of 50 ng/mL. Also, in experiment [2], the mAb concentration sufficient for complete inhibition of migration of CCR5 L1.2 cells to all of the ligands came to 20 µg/mL. Further, the inhibition of RANTES and MIP-1α chemotactic responses by T cell lines in experiment [3] is 60 to 80%. For the same substance, the inhibition of chemotactic response of anti-CD3/IL-2 stimulated T cells to MIP-1α in experiment [3] is 60 to 80%. In experiment [4], this substance showed a percent inhibition of 125I-MIP-1α binding of 85%. Moreover, the percent inhibition of 125I-RANTES binding in experiment [5] is 95%.
